The results in this text go back to FireProtDB (doi:10.1006/jmbi.2001.4728).

The labels stand for the following.
B1: Cytochrome c-551, P00099 (parent)
chain: MKPYALLSLLATGTLLAQGAWAEDPEVLFKNKGCVACHAIDTKMVGPAYKDVAAKFAGQAGAEAELAQRIKNGSQGVWGPIPMPPNAVSDDEAQTLAKWVLSQK

This series covers variants of B1. The settings on record: Pseudomonas aeruginosa (strain ATCC 15692 / DSM 22644 / CIP 104116 / JCM 14847 / LMG 12228 / 1C / PRS 101 / PAO1); pH 7; 10 °C; Urea; Fluorescence; sodium phosphate 50 mM; reversible: yes; structure 451C; whole UniProt chain shown.

Take W99F: the “ddG of mutation (higher = less stable)” value was 1.2 kcal/mol, the denaturant m value is 1 kcal/mol/M, the “denaturant midpoint (higher = more stable)” value (from here on “denaturant midpoint”) worked out at 5.6 M and the unfolding free energy worked out at 5.9 kcal/mol.
As to E92Q, the “ddG of mutation (higher = less stable)” value is 0.9 kcal/mol, the denaturant m value amounted to 1.1 kcal/mol/M, the “denaturant midpoint” value stood at 5.7 M and the unfolding free energy was found to be 6.2 kcal/mol.
Consider E92V, for which the “ddG of mutation (higher = less stable)” value was 2 kcal/mol, the denaturant m value was 1.2 kcal/mol/M, the “denaturant midpoint” value amounted to 4.3 M and the unfolding free energy worked out at 5.1 kcal/mol.
For W78F the same measures were 1.9 kcal/mol, 1.1 kcal/mol/M, 4.6 M and 5.2 kcal/mol.
